Test results taken from publication PMC9470675 (Signal Transduction and Targeted Therapy, 2022).

B1: recombinant MASP-2 (purified) (enzyme, human, UniProt O00187 16-686, looked up)
chain: TPLGPKWPEPVFGRLASPGFPGEYANDQERRWTLTAPPGYRLRLYFTHFDLELSHLCEYDFVKLSSGAKVLATLCGQESTDTERAPGKDTFYSLGSSLDITFRSDYSNEKPFTGFEAFYAAEDIDECQVAPGEAPTCDHHCHNHLGGFYCSCRAGYVLHRNKRTCSALCSGQVFTQRSGELSSPEYPRPYPKLSSCTYSISLEEGFSVILDFVESFDVETHPETLCPYDFLKIQTDREEHGPFCGKTLPHRIETKSNTVTITFVTDESGDHTGWKIHYTSTAQPCPYPMAPPNGHVSPVQAKYILKDSFSIFCETGYELLQGHLPLKSFTAVCQKDGSWDRPMPACSIVDCGPPDDLPSGRVEYITGPGVTTYKAVIQYSCEETFYTMKVNDGKYVCEADGFWTSSKGEKSLPVCEPVCGLSARTTGGRIYGGQKAKPGDFPWQVLILGGTTAAGALLYDNWVLTAAHAVYEQKHDASALDIRMGTLKRLSPHYTQAWSEAVFIHEGYTHDAGFDNDIALIKLNNKVVINSNITPICLPRKEAESFMRTDDIGTASGWGLTQRGFLARNLMYVDIPIVDHQKCTAAYEKPPYPRGSVTANMLCAGLESGGKDSCRGDSGGALVFLDSETERWFVGGIVSWGSMNCGEAGQYGVYTKVINYIPWIENIISDF
notes: also called Purified MASP-2

Key:
[1] = biological target: Purified SARS-CoV-2 N-His (SARS-CoV-2, UniProt P0DTC9 1-419); test: SPR; purified proteins; who was immobilised and the conditions not given; conditions: both partners purified
[2] = biological target: B1; test: as above; conditions: both partners purified

Binder B1 has a Kd [1] of 518 nM.

B2: SARS-CoV N protein (purified recombinant) (natural protein)
chain: not shown
B2 showed a Kd [2] of 268 nM.
